From patent US20230235013A1 (MABSOLVE, published 2023)
Positions count from the first letter of the chain named. Numbers in names are those of the source.

B1: anti-CD20 human IgG1 L234G/L235T/G236R (antibody)
heavy: QVQLQQPGAELVKPGASVKMSCKASGYTFTSYNMHWVKQTPGRGLEWIGAIYPGNGDTSYNQKFKGKATLTADKSSSTAYMQLSSLTSEDSAVYYCARSTYYGGDWYFNVWGAGTTVTVSSASTKGPSVFPLAPSSKSTSGGTAALGCLVKDYFPEPVTVSWNSGALTSGVHTFPAVLQSSGLYSLSSVVTVPSSSLGTQTYICNVNHKPSNTKVDKKVEPKSCDKTHTCPPCPAPEGTRGPSVFLFPPKPKDTLMISRTPEVTCVVVDVSHEDPEVKFNWYVDGVEVHNAKTKPREEQYNSTYRVVSVLTVLHQDWLNGKEYKCKVSNKALPAPIEKTISKAKGQPREPQVYTLPPSRDELTKNQVSLTCLVKGFYPSDIAVEWESNGQPENNYKTTPPVLDSDGSFFLYSKLTVDKSRWQQGNVFSCSVMHEALHNHYTQKSLSLSPGK
light: QIVLSQSPAILSASPGEKVTMTCRASSSVSYIHWFQQKPGSSPKPWIYATSNLASGVPVRFSGSGSGTSYSLTISRVEAEDAATYYCQQWTSNPPTFGGGTKLEIKRTVAAPSVFIFPPSDEQLKSGTASVVCLLNNFYPREAKVQWKVDNALQSGNSQESVTEQDSKDSTYSLSSTLTLSKADYEKHKVYACEVTHQGLSSPVTKSFNRGEC
notes: also called 1-60; copies: 2 + 2
B2: anti-CD20 human IgG1 L234K/L235Q/G236R (antibody)
heavy: B1 heavy with G238K, T239Q
light: B1 light
notes: also called 1-87; 2-22; copies: 2 + 2
B3: anti-CD20 human IgG1 L234H/L235V/G236R (antibody)
heavy: B1 heavy with G238H, T239V
light: B1 light
notes: also called 1-76; copies: 2 + 2
B4: anti-CD20 human IgG1 L234H/L235Q/G236R (antibody)
heavy: B1 heavy with G238H, T239Q
light: B1 light
notes: also called 1-72; copies: 2 + 2
B5: anti-CD20 human IgG1 L234H/L235D/G236R (antibody)
heavy: B1 heavy with G238H, T239D
light: B1 light
notes: also called 1-63; copies: 2 + 2
B6: anti-CD20 human IgG1 L234K/L235M/G236R (antibody)
heavy: B1 heavy with G238K, T239M
light: B1 light
notes: also called 1-85; copies: 2 + 2
B7: anti-CD20 human IgG1 L234K/L235K/G236R (antibody)
heavy: B1 heavy with G238K, T239K
light: B1 light
notes: also called 1-83; copies: 2 + 2
B8: anti-CD20 human IgG1 L234H/L235G/G236R (antibody)
heavy: B1 heavy with G238H, T239G
light: B1 light
notes: also called 1-65; copies: 2 + 2
B9: anti-CD20 human IgG1 L234H/L235M/G236R (antibody)
heavy: B1 heavy with G238H, T239M
light: B1 light
notes: also called 1-70; copies: 2 + 2
B10: anti-CD20 human IgG1 L234H/L235S/G236R (antibody)
heavy: B1 heavy with G238H, T239S
light: B1 light
notes: also called 1-74; 2-21; copies: 2 + 2
B11: anti-CD20 human IgG1 L234H/L235R/G236R (antibody)
heavy: B1 heavy with G238H, T239R
light: B1 light
notes: also called 1-73; copies: 2 + 2
B12: anti-CD20 human IgG1 L234K/L235A/G236R (antibody)
heavy: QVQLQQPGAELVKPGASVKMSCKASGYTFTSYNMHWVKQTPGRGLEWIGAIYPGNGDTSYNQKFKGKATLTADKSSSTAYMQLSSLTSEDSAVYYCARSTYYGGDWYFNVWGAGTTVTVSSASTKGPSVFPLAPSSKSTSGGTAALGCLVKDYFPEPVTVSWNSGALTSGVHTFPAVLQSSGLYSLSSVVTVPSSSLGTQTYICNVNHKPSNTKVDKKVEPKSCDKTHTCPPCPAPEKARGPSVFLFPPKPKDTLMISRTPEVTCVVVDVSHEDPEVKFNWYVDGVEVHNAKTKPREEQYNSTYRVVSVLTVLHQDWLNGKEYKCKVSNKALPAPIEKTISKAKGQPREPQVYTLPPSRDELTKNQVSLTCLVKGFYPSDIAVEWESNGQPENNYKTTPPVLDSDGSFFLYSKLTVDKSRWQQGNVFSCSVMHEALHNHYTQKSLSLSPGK
light: B1 light
notes: also called 1-77; copies: 2 + 2
B13: anti-CD20 human IgG1 L234H/L235H/G236R (antibody)
heavy: B1 heavy with G238H, T239H
light: B1 light
notes: also called 1-66; copies: 2 + 2
B14: anti-CD20 human IgG1 L234K/G236R (antibody)
heavy: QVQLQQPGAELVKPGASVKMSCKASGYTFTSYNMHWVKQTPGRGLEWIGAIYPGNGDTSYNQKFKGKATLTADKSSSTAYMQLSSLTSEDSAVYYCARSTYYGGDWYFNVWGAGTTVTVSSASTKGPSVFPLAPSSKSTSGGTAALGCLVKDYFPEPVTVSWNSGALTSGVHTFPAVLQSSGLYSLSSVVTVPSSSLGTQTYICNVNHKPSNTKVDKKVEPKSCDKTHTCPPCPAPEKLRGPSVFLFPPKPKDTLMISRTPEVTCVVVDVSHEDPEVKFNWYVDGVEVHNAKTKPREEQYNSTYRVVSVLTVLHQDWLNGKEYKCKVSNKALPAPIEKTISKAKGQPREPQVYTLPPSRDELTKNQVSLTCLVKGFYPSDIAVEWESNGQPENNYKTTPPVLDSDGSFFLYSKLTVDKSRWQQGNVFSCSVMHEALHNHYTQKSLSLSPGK
light: B1 light
notes: also called 1-84; copies: 2 + 2
B15: anti-CD20 human IgG1 L234K/L235H/G236R (antibody)
heavy: B1 heavy with G238K, T239H
light: B1 light
notes: also called 1-81; copies: 2 + 2
B16: anti-CD20 human IgG1 L234H/L235K/G236R (antibody)
heavy: B1 heavy with G238H, T239K
light: B1 light
notes: also called 1-68; copies: 2 + 2
B17: anti-CD20 human IgG1 L234K/L235E/G236R (antibody)
heavy: B1 heavy with G238K, T239E
light: B1 light
notes: also called 1-79; copies: 2 + 2
B18: anti-CD20 human IgG1 L234K/L235N/G236R (antibody)
heavy: B1 heavy with G238K, T239N
light: B1 light
notes: also called 1-86; copies: 2 + 2
B19: anti-CD20 human IgG1 L234H/L235E/G236R (antibody)
heavy: B1 heavy with G238H, T239E
light: B1 light
notes: also called 1-64; copies: 2 + 2
B20: anti-CD20 human IgG1 L234H/L235T/G236R (antibody)
heavy: B1 heavy with G238H
light: B1 light
notes: also called 1-75; copies: 2 + 2
B21: anti-CD20 human IgG1 L234H/L235N/G236R (antibody)
heavy: B1 heavy with G238H, T239N
light: B1 light
notes: also called 1-71; copies: 2 + 2
B22: anti-CD20 human IgG1 L234K/L235I/G236R (antibody)
heavy: B1 heavy with G238K, T239I
light: B1 light
notes: also called 1-82; copies: 2 + 2
B23: anti-CD20 human IgG1 L234K/L235G/G236R (antibody)
heavy: B1 heavy with G238K, T239G
light: B1 light
notes: also called 1-80; copies: 2 + 2
B24: anti-CD20 human IgG1 L234H/L235A/G236R (antibody)
heavy: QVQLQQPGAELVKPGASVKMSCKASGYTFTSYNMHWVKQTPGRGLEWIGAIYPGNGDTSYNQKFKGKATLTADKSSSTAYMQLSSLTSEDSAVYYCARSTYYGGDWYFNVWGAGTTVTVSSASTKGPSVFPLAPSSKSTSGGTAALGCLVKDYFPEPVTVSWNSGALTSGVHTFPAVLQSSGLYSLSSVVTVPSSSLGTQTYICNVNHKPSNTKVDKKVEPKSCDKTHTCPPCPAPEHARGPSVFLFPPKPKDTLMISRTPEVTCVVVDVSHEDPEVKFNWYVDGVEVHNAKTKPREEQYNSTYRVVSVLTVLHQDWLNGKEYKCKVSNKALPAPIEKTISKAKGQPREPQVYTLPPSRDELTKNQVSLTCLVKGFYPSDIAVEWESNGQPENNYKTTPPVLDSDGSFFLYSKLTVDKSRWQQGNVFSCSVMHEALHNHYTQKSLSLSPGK
light: B1 light
notes: also called 1-62; copies: 2 + 2
B25: anti-CD20 human IgG1 L234N/G236R (antibody)
heavy: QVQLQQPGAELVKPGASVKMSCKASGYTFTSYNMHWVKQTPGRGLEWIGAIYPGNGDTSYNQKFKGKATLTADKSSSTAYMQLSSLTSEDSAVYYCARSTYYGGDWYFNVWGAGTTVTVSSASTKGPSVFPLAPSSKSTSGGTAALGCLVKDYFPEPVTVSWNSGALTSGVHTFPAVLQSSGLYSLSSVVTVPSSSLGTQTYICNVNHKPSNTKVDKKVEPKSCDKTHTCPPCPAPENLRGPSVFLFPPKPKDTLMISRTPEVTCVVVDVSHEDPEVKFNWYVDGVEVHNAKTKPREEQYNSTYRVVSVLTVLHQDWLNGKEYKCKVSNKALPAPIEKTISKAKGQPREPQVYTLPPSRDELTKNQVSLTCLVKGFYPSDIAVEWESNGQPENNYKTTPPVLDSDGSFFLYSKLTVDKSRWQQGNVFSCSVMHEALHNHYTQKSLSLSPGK
light: B1 light
notes: also called 1-99; copies: 2 + 2

Target: T1, Histidine-tagged recombinant human FcγRI (CD64) (human, UniProt P12314 16-288)
T1 construct: bought; also called Sino Biological Cat. No. 12056-H08H
Assay: SPR, culture supernatant, captured His-FcγRI;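 also: biacore T200 SPR at 25 °C, anti-His capture, supernatants of HEK293 cells expressing IgG1 Fc variants injected 1 min, reference-subtracted response read 55 s after injection start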

Binder | Mean binding response
B1 | 26.5 RU
B2 | 8.4 RU
B3 | 25.6 RU
B4 | 33.3 RU
B5 | 38.5 RU
B6 | 23.9 RU
B7 | 37.6 RU
B8 | 31.6 RU
B9 | 31.3 RU
B10 | 10.9 RU
B11 | 35.3 RU
B12 | 23 RU
B13 | 36.3 RU
B14 | 31.2 RU
B15 | 25.3 RU
B16 | 29.2 RU
B17 | 29.9 RU
B18 | 24.8 RU
B19 | 22.8 RU
B20 | 44.9 RU
B21 | 24.6 RU
B22 | 30.9 RU
B23 | 27.4 RU
B24 | 29.4 RU
B25 | 22.3 RU
